# Experimental data: article PMC12048511, “An asymmetric nautilus-like HflK/C assembly controls FtsH proteolysis of membrane proteins” (The EMBO Journal, 2025)
# B1: HflK (endogenous) (natural protein, E. coli (endogenous in BL21(DE3)), UniProt P0ABC7 1-419, looked up)
# chain: MAWNQPGNNGQDRDPWGSSKPGGNSEGNGNKGGRDQGPPDLDDIFRKLSKKLGGLGGGKGTGSGGGSSSQGPRPQLGGRVVTIAAAAIVIIWAASGFYTIKEAERGVVTRFGKFSHLVEPGLNWKPTFIDEVKPVNVEAVRELAASGVMLTSDENVVRVEMNVQYRVTNPEKYLYSVTSPDDSLRQATDSALRGVIGKYTMDRILTEGRTVIRSDTQRELEETIRPYDMGITLLDVNFQAARPPEEVKAAFDDAIAARENEQQYIREAEAYTNEVQPRANGQAQRILEEARAYKAQTILEAQGEVARFAKLLPEYKAAPEITRERLYIETMEKVLGNTRKVLVNDKGGNLMVLPLDQMLKGGNAPAAKSDNGASNLLRLPPASSSTTSGASNTSSTSQGDIMDQRRANAQRNDYQRQGE
# notes: HflK, E. coli BL21(DE3), SPFH-domain protein; residues 79-355 modelled for most subunits in PDB 9CZ2; 24 alternating HflK and HflC subunits form the nautilus-like assembly; also called HflK/C subunit; source: endogenous, E. coli BL21(DE3), co-purified with FtsH-FLAG on anti-FLAG resin
# Target: T1, FtsH with a C-terminal FLAG epitope (chromosomally encoded) (E. coli, UniProt P0AAI3 1-644)
# T1 construct: FtsH, E. coli BL21(DE3), product of the chromosomal ftsH gene with a tag appended to its C-terminus; residues 31-97 (periplasmic domain) are modelled in PDB 9CZ2; Homohexamer; one or two hexamers per HflK/C assembly; also called FtsH-FLAG (C-terminal); tagged FtsH; source: E. coli BL21(DE3), chromosomal ftsH locus modified (no overproduction); anti-FLAG M2 resin from membranes solubilised with …
# Assay: co-IP; anti-FLAG M2 resin on solubilised membranes of E. coli with chromosomally FLAG-tagged FtsH (1% DDM or 2% GDN; also detergent-free with Carboxy-DIBMA), eluted with FLAG peptide; no overproduction
# Conditions: partners not purified
# T1 sequence (P0AAI3 whole entry, the tested form may be a part): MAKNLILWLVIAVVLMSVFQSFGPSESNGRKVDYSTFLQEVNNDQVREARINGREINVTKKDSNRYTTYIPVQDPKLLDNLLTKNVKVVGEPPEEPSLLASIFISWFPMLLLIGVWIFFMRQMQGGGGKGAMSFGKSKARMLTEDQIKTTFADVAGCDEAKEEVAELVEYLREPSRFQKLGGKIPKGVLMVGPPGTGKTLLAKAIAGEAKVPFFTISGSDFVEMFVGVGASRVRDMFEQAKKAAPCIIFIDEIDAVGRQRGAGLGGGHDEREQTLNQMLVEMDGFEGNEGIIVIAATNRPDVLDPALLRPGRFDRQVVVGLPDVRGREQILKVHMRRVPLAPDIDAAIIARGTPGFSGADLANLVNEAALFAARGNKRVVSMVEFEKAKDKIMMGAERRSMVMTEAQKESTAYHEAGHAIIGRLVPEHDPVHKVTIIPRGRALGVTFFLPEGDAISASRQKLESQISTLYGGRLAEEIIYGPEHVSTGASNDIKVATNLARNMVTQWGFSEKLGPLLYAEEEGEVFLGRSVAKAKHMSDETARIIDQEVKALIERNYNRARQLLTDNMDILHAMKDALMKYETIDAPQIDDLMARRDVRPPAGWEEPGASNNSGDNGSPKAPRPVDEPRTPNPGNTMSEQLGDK
binder,measurement,value
B1,binding result,binds
